For assay [1], the target named is T1, cynomolgus CX3CR1 (cynomolgus monkey (Macaca fascicularis), UniProt P49238 1-355 (human entry)).
T1 construct: Overexpressed on CHO K1 cells; also called cyno CX3CR1; cyCX3CR1
T1 chain: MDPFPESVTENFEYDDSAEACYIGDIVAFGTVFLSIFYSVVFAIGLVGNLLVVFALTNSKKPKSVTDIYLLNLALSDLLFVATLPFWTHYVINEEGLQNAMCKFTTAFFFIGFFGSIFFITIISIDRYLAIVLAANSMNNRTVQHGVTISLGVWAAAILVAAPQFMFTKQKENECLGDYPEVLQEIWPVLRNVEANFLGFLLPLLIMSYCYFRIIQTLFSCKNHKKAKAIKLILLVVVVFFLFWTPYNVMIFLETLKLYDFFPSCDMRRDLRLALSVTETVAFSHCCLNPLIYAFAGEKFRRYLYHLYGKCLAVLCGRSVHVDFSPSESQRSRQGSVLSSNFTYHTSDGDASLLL
Nature of the assay: competition flow cytometry vs soluble huCX3CL1-AF647 on CHO K1 cyCX3CR1 cells, 30 uM HSA. For orientation: Flow cytometry measures light scatter and fluorescence of single cells or particles in a stream.

Assay [2] concerns the target T2, human CX3CR1 V249I/T280M (human, UniProt P49238 1-355).
T2 construct: Transiently transfected in HEK293T cells (pcDNA3.1); also called huCX3CR1 variant V249I and T280M
T2 chain: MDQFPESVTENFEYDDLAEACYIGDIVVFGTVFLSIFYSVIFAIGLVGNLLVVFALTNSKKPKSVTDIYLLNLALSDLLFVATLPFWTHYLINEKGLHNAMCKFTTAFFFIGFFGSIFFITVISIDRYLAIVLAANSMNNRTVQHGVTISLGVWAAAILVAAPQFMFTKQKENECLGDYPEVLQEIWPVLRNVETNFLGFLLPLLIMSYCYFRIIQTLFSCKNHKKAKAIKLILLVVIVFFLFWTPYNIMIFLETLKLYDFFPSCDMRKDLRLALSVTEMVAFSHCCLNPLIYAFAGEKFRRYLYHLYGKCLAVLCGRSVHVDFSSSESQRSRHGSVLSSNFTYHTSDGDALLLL
Nature of the assay: flow cytometry on transiently transfected HEK293T cells, human CX3CR1 V249I/T280M. On the procedure: (§1) After washing, serial dilutions of multivalent ISVD construct (starting from 250 nM, 3-fold dilution, 11 points, diluted in assay buffer), were added and incubated for 4 hours at 4° C. Binding was performed in the presence of 30 uM HSA (Sigma-Aldrich, Cat. No. A8763). Plates were then washed 3 times and cells were incubated with an anti-VHH mouse antibody (3300-fold diluted in assay buffer) for 30 minutes at 4′° C. […] Plates were finally washed 3 times and cells were resuspended in PI (Miltenyi Biotec, Cat. No. 130-093-233, 1000-fold diluted in assay buffer). Cell suspensions were analyzed with iQue Screener PLUS (Intellicyt). EC50s were estimated by dose response modelling. Curves were fit using 4 parameter logistic regression in GraphPad (GraphPad Software Inc.). A purified anti-human CX3CR1 antibody [K0124E1] (BioLegend, Cat. No. 355701/355702) was used as positive control to detect CX3CR1 expression on the cell surface.
(§2) Two important SNPs are described in huCX3CR1, i.e. V2491 (Rs3732379) and T280M (Rs3732378), which might influence receptor activity and binding by the ISVD. […] Different combinations of these SNPs were introduced in human CX3CR1, and binding by 5 selected multivalent ISVD constructs was assessed with flow cytometry after transient transfection of the huCX3CR1 variants in HEK293T cells.
(§3) In short, the CX3CR1 constructs were cloned into pcDNA3.1 (ThermoFisher Scientific, Cat. No. V79020) and plasmid DNA was prepared from Escherichia coli TOP10 cells. HEK293T cells were seeded at a concentration of 1.5E06 cells per T75 flask and incubated overnight at 37° C. in DMEM medium (Gibco, Cat. No. 31966) supplemented with 10% FBS (Sigma. Cat. No. F7524). The medium was then replaced by Opti-MEM medium (Gibco, Cat. No. 31985). A mixture of 9 μg plasmid DNA, 27 μL Fugene 6 (Promega, Cat. No. E2691) in a final volume of 1 mL Opti-MEM was incubated for 15 minutes at room temperature and then added to the cells. After 3 hours incubation at 37° C., 10 mL of DMEM supplemented with 20% FBS was added, and incubation continued.

The target of assay [3] is T3, human CX3CR1 (human, UniProt P49238 1-355).
T3 construct: Overexpressed on CHO K1, Ba/F3 or HEK293T cells; also called huCX3CR1; hCX3CR1
T3 sequence: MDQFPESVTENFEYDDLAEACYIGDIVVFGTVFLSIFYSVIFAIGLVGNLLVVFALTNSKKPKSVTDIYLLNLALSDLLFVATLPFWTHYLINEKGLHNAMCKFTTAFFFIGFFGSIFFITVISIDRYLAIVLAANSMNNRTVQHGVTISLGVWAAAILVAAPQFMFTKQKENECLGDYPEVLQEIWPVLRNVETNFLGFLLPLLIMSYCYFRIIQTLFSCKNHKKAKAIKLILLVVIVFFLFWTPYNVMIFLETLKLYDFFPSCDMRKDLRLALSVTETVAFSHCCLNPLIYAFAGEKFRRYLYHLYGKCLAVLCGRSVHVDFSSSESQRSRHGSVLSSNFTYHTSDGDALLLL
Briefly: competition flow cytometry vs soluble huCX3CL1-AF647 on CHO K1 huCX3CR1 cells, 30 uM HSA.

Assay [4] has as its target T4, human CX3CR1 V249I (human, UniProt P49238 1-355).
T4 construct: Transiently transfected in HEK293T cells (pcDNA3.1); also called huCX3CR1 variant V249I (Rs3732379); printed V2491 in the text
T4 sequence: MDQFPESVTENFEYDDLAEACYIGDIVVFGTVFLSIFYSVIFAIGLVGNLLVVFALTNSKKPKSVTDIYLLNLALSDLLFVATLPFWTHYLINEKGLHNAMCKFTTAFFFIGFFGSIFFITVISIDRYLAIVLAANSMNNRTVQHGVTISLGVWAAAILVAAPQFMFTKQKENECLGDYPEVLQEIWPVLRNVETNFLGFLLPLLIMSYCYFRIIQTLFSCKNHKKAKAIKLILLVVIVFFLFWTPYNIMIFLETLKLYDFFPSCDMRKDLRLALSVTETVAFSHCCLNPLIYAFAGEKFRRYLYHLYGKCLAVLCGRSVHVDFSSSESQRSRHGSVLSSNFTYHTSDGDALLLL
Nature of the assay: flow cytometry on transiently transfected HEK293T cells, human CX3CR1 V249I. As for the experimental part: as §1, §2, §3

B1: A041600035 (VHH)
chain: DVQLVESGGGSVQPGGSLRLSCAASGSIFSSTAMAWYRQAPGKQRDLVAVISTVGITKYADSVKGRFTISRDNAKNTVYLQMNSLRPEDTALYYCTSDARRGWDTRYWGQGTLVTVSSGGGGSGGGSEVQLVESGGGSVQPGGSLRLSCAASGSIFSSTAMAWYRQAPGKQRDLVAVISTVGITKYADSVKGRFTISRDNAKNTVYLQMNSLRPEDTALYYCTSDARRGWDTRYWGQGTLVTVSSGGGGSGGGSEVQLVESGGGVVQPGGSLRLSCAASGFTFRSFGMSWVRQAPGKGPEWVSSISGSGSDTLYADSVKGRFTISRDNSKNTLYLQMNSLRPEDTALYYCTIGGSLSRSSQGTLVTVSSA
notes: Trivalent ISVD construct (two anti-CX3CR1 ISVDs, one anti-albumin ISVD), C-terminal alanine included in the entry; also called 54A12_SO (E1D)-9GS-54A12_SO-9GS-ALB23002-A
In general, % inhibition refers to the change of the read-out against control, counted positive when it falls. For orientation: IC50 means the point on the concentration scale where inhibition reaches its midpoint. As usually defined, the EC50 is the concentration that produces a half-maximal response. For the molecule B1, the “% inhibition” value in assay [1] stood at 105%; in assay [3], 99%. Besides, the figures for the IC50 in assay [1] and in assay [3] were 1.1 nM and 2.5 nM, respectively. The EC50 came to 0.27 nM in assay [2] and 0.25 nM in assay [4].

B2: A041600041 (VHH)
chain: DVQLVESGGGSVQPGGSLRLSCAASGSIFSSTAMAWYRQAPGKQRDLVAVISTVGITKYADSVKGRFTISRDNAKNTVYLQMNSLRPEDTALYYCTSDARRGWDTRYWGQGTLVTVSSGGGGSGGGSEVQLVESGGGSVQPGGSLRLSCAASGSIFSSTAMAWYRQAPGKRRDLVAAINTVGVTKYADSVKGRFTISRDNAKNTVYLQMNSLRPEDTALYYCTSDPRRGWDTRYWGQGTLVTVSSGGGGSGGGSEVQLVESGGGVVQPGGSLRLSCAASGFTFRSFGMSWVRQAPGKGPEWVSSISGSGSDTLYADSVKGRFTISRDNSKNTLYLQMNSLRPEDTALYYCTIGGSLSRSSQGTLVTVSSA
notes: Trivalent ISVD construct (two anti-CX3CR1 ISVDs, one anti-albumin ISVD), C-terminal alanine included in the entry; also called 54A12_SO (E1D)-9GS-66B02_SO-9GS-ALB23002-A
For B2, in assay [1], the “% inhibition” value was 107% and the IC50 was 1.8 nM. In assay [3], the “% inhibition” value is 97% and the IC50 stood at 2.7 nM. Also, in assay [4], the EC50 amounted to 0.089 nM.

B3: A041600025 (VHH)
chain: DVQLVESGGGSVQPGGSLRLSCAASGSIFSSTAMAWYRQAPGKQRDLVAVISTVGITKYADSVKGRFTISRDNAKNTVYLQMNSLRPEDTALYYCTSDARRGWDTRYWGQGTLVTVSSGGGGSGGGSEVQLVESGGGVVQPGGSLRLSCAASGFTFRSFGMSWVRQAPGKGPEWVSSISGSGSDTLYADSVKGRFTISRDNSKNTLYLQMNSLRPEDTALYYCTIGGSLSRSSQGTLVTVSSGGGGSGGGSEVQLVESGGGSVQPGGSLRLSCAASGSIFSSTAMAWYRQAPGKQRDLVAVISTVGITKYADSVKGRFTISRDNAKNTVYLQMNSLRPEDTALYYCTSDARRGWDTRYWGQGTLVTVSSA
notes: Trivalent ISVD construct (two anti-CX3CR1 ISVDs, one anti-albumin ISVD), C-terminal alanine included in the entry; also called 54A12_SO (E1D)-9GS-ALB23002-9GS-54A12_SO-A
Take B3: in assay [1], the “% inhibition” value worked out at 104% and the IC50 turned out to be 1.7 nM. In addition, in assay [2], the EC50 was determined as 0.17 nM. In addition, in assay [3], the “% inhibition” value was 98% and the IC50 was 3.8 nM.

B4: A041600034 (VHH)
chain: DVQLVESGGGSVQPGGSLRLSCAASGSIFSSTAMAWYRQAPGKQRDLVAVISTVGITKYADSVKGRFTISRDNAKNTVYLQMNSLRPEDTALYYCTSDARRGWDTRYWGQGTLVTVSSGGGGSGGGSEVQLVESGGGVVQPGGSLRLSCAASGFTFRSFGMSWVRQAPGKGPEWVSSISGSGSDTLYADSVKGRFTISRDNSKNTLYLQMNSLRPEDTALYYCTIGGSLSRSSQGTLVTVSSGGGGSGGGSEVQLVESGGGSVQPGGSLRLSCAASGSIFSSTAMAWYRQAPGKRRDLVAAINTVGVTKYADSVKGRFTISRDNAKNTVYLQMNSLRPEDTALYYCTSDPRRGWDTRYWGQGTLVTVSSA
notes: Trivalent ISVD construct; also called 54A12_SO (E1D)-9GS-ALB23002-9GS-66B02_SO-A
As for B4, the “% inhibition” value in assay [1] was found to be 104%; in assay [3] it was 95%. The IC50 in assay [1] was 1.8 nM; in assay [3] it was 4.5 nM. Also, the concentration for a half-maximal effect (EC50) stood at 0.09 nM in assay [2] and 0.045 nM in assay [4].

B5: A041600085 (VHH)
chain: DVQLVESGGGLVQPGGSLRLSCAASGSIFSSTAMAWYRQAPGKRRDLVAAISTVGVTKYADSVKGRFTISRDNSKNTVYLQMNSLRPEDTAVYYCTSDPRRGWDTRYWGQGTLVTVSSGGGGSGGGSEVQLVESGGGVVQPGGSLRLSCAASGFTFRSFGMSWVRQAPGKGPEWVSSISGSGSDTLYADSVKGRFTISRDNSKNTLYLQMNSLRPEDTALYYCTIGGSLSRSSQGTLVTVSSGGGGSGGGSEVQLVESGGGLVQPGGSLRLSCAASGSIFSSTAMAWYRQAPGKRRDLVAAISTVGVTKYADSVKGRFTISRDNSKNTVYLQMNSLRPEDTAVYYCTSDPRRGWDTRYWGQGTLVTVSSA
notes: also called 307-9GS-ALB23002-9GS-307 (D1E)-A
For B5, the “% inhibition” value is 102% in assay [1] and 103% in assay [3]. Also, the IC50 in assay [1] stood at 1.1 nM; in assay [3] it was 7.7 nM. The EC50 in assay [4] was found to be 0.057 nM.
